Test [1] has as its target streptavidin-agarose (immobilized streptavidin) (Streptomyces avidinii) (UniProt P22629). In words: affinity chromatography: ammonium sulfate fraction passed over streptavidin-agarose.
For test [2] the target is unchanged. In words: affinity chromatography on streptavidin-agarose.

As for “Strep-tagged oat phytochrome A (ASPHYA-ST)”, in test [1], the efficiency of binding was 86%. The binding capacity (µg ASPHYA-ST per milliliter bed volume) in test [2] worked out at 200.

Values taken from patent publication US6046014.
